Measurements published in patent US20180072803A1 (MINOMIC INTERNATIONAL, published 2018).

T1: MIL-38 antigen (GPC-1) as present in DU-145 and other cell lines (UniProt P35052 24-530)
T1 construct: whole, on cells; In IFA it stood on acetone-fixed cells; in Western blots it stood in membrane protein (MPEK) extracts of the cells; also called GPC-1 antigen
T1 sequence (looked up): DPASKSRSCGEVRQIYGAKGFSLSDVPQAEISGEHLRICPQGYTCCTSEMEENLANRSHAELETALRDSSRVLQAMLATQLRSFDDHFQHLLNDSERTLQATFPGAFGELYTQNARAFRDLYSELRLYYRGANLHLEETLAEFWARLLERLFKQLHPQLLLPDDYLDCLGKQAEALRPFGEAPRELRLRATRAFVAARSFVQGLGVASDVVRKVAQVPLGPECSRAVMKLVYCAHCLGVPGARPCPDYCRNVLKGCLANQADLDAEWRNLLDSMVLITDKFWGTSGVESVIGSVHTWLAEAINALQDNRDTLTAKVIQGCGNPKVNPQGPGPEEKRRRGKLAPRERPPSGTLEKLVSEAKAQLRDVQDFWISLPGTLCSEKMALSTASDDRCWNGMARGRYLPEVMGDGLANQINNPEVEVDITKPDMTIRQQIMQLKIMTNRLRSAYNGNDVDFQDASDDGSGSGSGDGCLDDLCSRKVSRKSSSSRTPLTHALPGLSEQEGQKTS

T2: recombinant human GPC-1 produced from NS0 cells (human, UniProt P35052 24-530)
T2 construct: also called GPC-1 NS0; recombinant NS0-produced GPC-1
T2 sequence (looked up): T1 sequence (looked up)

B1: AM-4 MIL-38 antibody (AusMAb 4) (antibody, mouse IgG1, kappa)
heavy: QIQLVQSGPELKKPGETVKISCKASGYAFTDYSMNWVKQAPGKGLRWMGWINTETGEPTYTDDFKGRFAFSLETSASTAFLQINNLRNEDTATYFCARHYDYGGFPYWGQGTLVTVSAAKTTPPSVYPLAPGSAAQTNSMVTLGCLVKGYFPEPVTVTWNSGSLSSGVHTFPAVLQSDLYTLSSSVTVPSSTWPSETVTCNVAHPASSTKVDKKIVPRDCGCKPCICTVPEVSSVFIFPPKPKDVLTITLTPKVTCVVVDISKDDPEVQFSWFVDDVEVHTAQTQPREEQFNSTFRSVSELPIMHQDWLNGKEFKCRVNSAAFPAPIEKTISKTKGRPKAPQVYTIPPPKEQMAKDKVSLTCMITDFFPEDITVEWQWNGQPAENYKNTQPIMDTDGSYFVYSKLNVQKSNWEAGNTFTCSVLHEGLHNHHTEKSLSHSPGK
light: DIQMTQSPASLSASVGETVTITCRASGNVHNYLAWYQQKQGKSPQLLVYTAKTLADGVPSRFSGSGSGTQYSLKINSLQPEDFGTYYCQHFWSNPWTFGGGTKLEIKRADAAPTVSIFPPSSEQLTSGGASVVCFLNNFYPKDINVKWKIDGSERQNGVLNSWTDQDSKDSTYSMSSTLTLTKDEYERHNSYTCEATHKTSTSPIVKSFNRNEC
notes: Monoclonal mouse IgG1 kappa; Biotinylated AM-4 was also the detection antibody in the sandwich ELISA; also called monoclonal AM-4 MIL-38
B2: Chimeric MIL-38 antibody (Mouse VH-Human CH1-CH3 / Mouse VK-Human CK) (antibody, human IgG1, kappa)
heavy: not shown
light: DIQMTQSPASLSASVGETVTITCRASGNVHNYLAWYQQKQGKSPQLLVYTAKTLADGVPSRFSGSGSGTQYSLKINSLQPEDFGTYYCQHFWSNPWTFGGGTKLEIKRTVAAPSVFIFPPSDEQLKSGTASVVCLLNNFYPREAKVQWKVDNALQSGNSQESVTEQDSKDSTYSLSSTLTLSKADYEKHKVYACEVTHQGLSSPVTKSFNRGEC
notes: Expressed transiently in CHO-3E7 cells and purified on Protein A; also called MIL-38 chimeric antibody

Assays:
[1] = molecular target: T1, MIL-38 antigen (GPC-1) as present in …; assay: Western blot on DU-145 and C3 extracts (FIG. 2B)
[2] = molecular target: T2, recombinant human GPC-1 produced from …; assay: sandwich ELISA, antibody coated as capture, biotinylated AM-4 as detection (FIG. 6A)
Procedure: Plates were blocked with PBS-Tween (0.1.%) containing 5% skim milk at 37° C. and washed. Antigen (recombinant human GPC-1 produced from NS0 cells) diluted in Buffer II (20 mM HEPES pH 7.5, 0.5 mM EDTA, 0.5% Triton X-100) with the addition of 150 mM NaCl and incubated overnight at 37° C. […] Absorbance was read 450 nm.

[3] = molecular target: T2, recombinant human GPC-1 produced from …; assay: Western blot, three-antibody detection
Procedure: As a control, murine MIL-38 was detected by goat anti-mouse secondary antibody followed by a sheep-anti-goat HRP antibody. […] The complex was detected using a sheep-anti-goat HRP antibody. […] The complex was detected using a sheep-anti-mouse HRP antibody.
A control western blot using a three antibody detection method was also performed with murine MIL-38. (FIG. 9C).

[4] = molecular target: T1, MIL-38 antigen (GPC-1) as present in …; assay: immunofluorescence assay on DU-145 cells (FIG. 8F)
Procedure: IFA: Cells were grown on coverslips until 75% confluent and placed in 6 well plates. The cells were washed with PBS followed by fixing with acetone. Cells were washed again with PBS followed by incubation with TBS then blocked with PBS containing 5% skim milk. […] Both antibodies were prepared in PBS containing 1% skim milk followed. Washing with PBS was performed between the primary and secondary antibody incubations. After secondary incubation, cells were washed with PBS containing DAPI and visualised for green fluorescence (MIL-38 positive).
A slide with no primary antibody was used as a negative control.

Binder | binding result [1] | binding result [2] | binding result [3] | binding result [4]
B1 | binds | binds |  | 
B2 |  |  | binds | binds
